According to US20170304457A1 (MIT, published 2017):

Experiments:
Test in all cases: cell-based or functional assay
P-cNsp1-P = target: P-cNsp1-P
P-1NLP-P = target: P-1NLP-P
P-2NLP-P = target: P-2NLP-P
P-2NLP-P, sequence (chain, as listed by the source): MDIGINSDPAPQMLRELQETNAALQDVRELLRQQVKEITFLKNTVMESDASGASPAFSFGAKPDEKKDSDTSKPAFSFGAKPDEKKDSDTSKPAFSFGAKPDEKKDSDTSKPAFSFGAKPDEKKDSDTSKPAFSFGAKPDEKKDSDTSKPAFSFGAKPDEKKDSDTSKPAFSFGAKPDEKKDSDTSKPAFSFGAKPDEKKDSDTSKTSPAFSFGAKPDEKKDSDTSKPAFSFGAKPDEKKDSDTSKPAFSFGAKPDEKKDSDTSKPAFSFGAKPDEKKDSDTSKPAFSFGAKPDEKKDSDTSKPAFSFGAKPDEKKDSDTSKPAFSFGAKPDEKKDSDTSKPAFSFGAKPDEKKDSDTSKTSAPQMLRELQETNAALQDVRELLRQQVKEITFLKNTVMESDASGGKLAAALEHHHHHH

P-1NLP-P, sequence (chain, as listed by the source): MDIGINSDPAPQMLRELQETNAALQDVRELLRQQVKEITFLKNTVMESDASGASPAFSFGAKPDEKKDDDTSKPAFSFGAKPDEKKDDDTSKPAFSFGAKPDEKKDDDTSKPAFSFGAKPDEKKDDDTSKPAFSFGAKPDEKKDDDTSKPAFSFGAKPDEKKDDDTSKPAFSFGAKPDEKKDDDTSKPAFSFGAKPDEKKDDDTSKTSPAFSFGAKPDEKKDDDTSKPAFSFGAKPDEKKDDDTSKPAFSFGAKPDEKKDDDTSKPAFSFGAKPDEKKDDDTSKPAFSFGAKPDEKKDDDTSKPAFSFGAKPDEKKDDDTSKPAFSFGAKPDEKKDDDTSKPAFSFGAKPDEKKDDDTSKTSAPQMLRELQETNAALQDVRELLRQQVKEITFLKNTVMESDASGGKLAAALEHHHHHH
P-cNsp1-P, sequence (chain, as listed by the source): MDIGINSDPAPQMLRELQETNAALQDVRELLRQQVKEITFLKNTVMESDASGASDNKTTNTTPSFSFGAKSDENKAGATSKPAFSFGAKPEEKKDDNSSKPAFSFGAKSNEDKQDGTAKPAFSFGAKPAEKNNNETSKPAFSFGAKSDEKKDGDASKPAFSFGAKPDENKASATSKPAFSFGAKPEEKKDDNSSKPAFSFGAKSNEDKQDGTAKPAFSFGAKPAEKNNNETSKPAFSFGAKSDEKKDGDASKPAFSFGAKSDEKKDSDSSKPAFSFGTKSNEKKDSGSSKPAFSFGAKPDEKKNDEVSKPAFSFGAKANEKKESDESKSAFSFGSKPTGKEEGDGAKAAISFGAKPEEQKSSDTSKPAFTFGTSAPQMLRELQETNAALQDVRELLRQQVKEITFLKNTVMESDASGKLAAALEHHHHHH

absorption of cargo-importin β complexes by the hydrogel relative to inert molecules in an hour (capillary transport assay, 20 w/v % gel) (P-cNsp1-P): 3.9 times more than inert molecules
absorption of cargo-importin β complexes by the hydrogel relative to inert molecules in an hour (capillary transport assay, 20 w/v % gel) (P-1NLP-P): 2.3 times more than inert molecules
accumulation of cargo-carrier complexes relative to MBP-mCherry (without the IBB domain) over an hour, 20 w/v % gel (P-1NLP-P): 3 times more than MBP-mCherry
absorption of cargo-importin β complexes by the hydrogel relative to inert molecules in an hour (capillary transport assay, 20 w/v % gel) (P-2NLP-P): 3.8 times more than inert molecules
accumulated green fluorescence intensity compared to the intensity without importin β, relative to the P-1NLP-P gel (P-2NLP-P): ~2 fold of P-1NLP-P gel
accumulation of cargo-carrier complexes in the gel relative to MBP-mCherry (no IBB domain) over three hours, 10 w/v % gel (P-2NLP-P): 5.2 times more than MBP-mCherry
accumulation of cargo-carrier complexes in the gel relative to MBP-mCherry (no IBB domain) over three hours, 20 w/v % gel (P-2NLP-P): 10.2 times more than MBP-mCherry
accumulation of cargo-carrier complexes relative to MBP-mCherry (without the IBB domain) over an hour, 20 w/v % gel (P-2NLP-P): 5.3 times more than MBP-mCherry
B1: importin β (receptor, UniProt Q06142 1-861, looked up, not shown: small tags and cut ends)
chain: MSTAEFAQLLENSILSPDQNIRLTSETQLKKLSNDNFLQFAGLSSQVLIDENTKLEGRILAALTLKNELVSKDSVKTQQFAQRWITQVSPEAKNQIKTNALTALVSIEPRIANAAAQLIAAIADIELPHGAWPELMKIMVDNTGAEQPENVKRASLLALGYMCESADPQSQALVSSSNNILIAIVQGAQSTETSKAVRLAALNALADSLIFIKNNMEREGERNYLMQVVCEATQAEDIEVQAAAFGCLCKIMSLYYTFMKPYMEQALYALTIATMKSPNDKVASMTVEFWSTICEEEIDIAYELAQFPQSPLQSYNFALSSIKDVVPNLLNLLTRQNEDPEDDDWNVSMSAGACLQLFAQNCGNHILEPVLEFVEQNITADNWRNREAAVMAFGSIMDGPDKVQRTYYVHQALPSILNLMNDQSLQVKETTAWCIGRIADSVAESIDPQQHLPGVVQACLIGLQDHPKVATNCSWTIINLVEQLAEATPSPIYNFYPALVDGLIGAANRIDNEFNARASAFSALTTMVEYATDTVAETSASISTFVMDKLGQTMSVDENQLTLEDAQSLQELQSNILTVLAAVIRKSPSSVEPVADMLMGLFFRLLEKKDSAFIEDDVFYAISALAASLGKGFEKYLETFSPYLLKALNQVDSPVSITAVGFIADISNSLEEDFRRYSDAMMNVLAQMISNPNARRELKPAVLSVFGDIASNIGADFIPYLNDIMALCVAAQNTKPENGTLEALDYQIKVLEAVLDAYVGIVAGLHDKPEALFPYVGTIFQFIAQVAEDPQLYSEDATSRAAVGLIGDIAAMFPDGSIKQFYGQDWVIDYIKRTRSGQLFSQATKDTARWAREQQKRQLSL
